T1: PR70 (25–575) (human, UniProt Q9Y5P8 25-575)
T1 construct: PR70 (B''β), regulatory B'' subunit of PP2A, human, product of PPP2R3B; also called B''/PR70; source: E. coli BL21(DE3), purified (IMAC, TEV cleavage, gel filtration); not shown: His tag, N-terminal, cleaved
T1 sequence (looked up): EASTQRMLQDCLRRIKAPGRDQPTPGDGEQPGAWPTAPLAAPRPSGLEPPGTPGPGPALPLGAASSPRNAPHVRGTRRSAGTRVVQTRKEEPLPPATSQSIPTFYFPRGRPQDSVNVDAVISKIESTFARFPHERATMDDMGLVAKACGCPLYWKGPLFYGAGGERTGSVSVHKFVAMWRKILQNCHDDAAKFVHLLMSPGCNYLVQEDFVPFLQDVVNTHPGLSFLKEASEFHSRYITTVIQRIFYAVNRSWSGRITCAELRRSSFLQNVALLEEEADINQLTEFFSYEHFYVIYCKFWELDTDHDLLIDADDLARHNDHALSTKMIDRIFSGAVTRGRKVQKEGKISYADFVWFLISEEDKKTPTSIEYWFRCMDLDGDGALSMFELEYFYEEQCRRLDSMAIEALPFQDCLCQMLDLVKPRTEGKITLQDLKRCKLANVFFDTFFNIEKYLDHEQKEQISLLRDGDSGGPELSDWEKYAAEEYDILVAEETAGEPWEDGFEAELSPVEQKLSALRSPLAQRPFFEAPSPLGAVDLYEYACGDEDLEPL

T2: PR70 core fragment (residues 130–483) (human, UniProt Q9Y5P8 130-483)
T2 construct: PR70 (B''β), regulatory B'' subunit of PP2A, human, product of PPP2R3B; The crystal (PDB 4MEW) was of the selenomethionine-labelled protein alone; the model holds residues 134–481; also called PR70 core domain; source: E. coli BL21(DE3), purified (IMAC, TEV cleavage, gel filtration); not shown: His tag, N-terminal, cleaved
T2 sequence (looked up): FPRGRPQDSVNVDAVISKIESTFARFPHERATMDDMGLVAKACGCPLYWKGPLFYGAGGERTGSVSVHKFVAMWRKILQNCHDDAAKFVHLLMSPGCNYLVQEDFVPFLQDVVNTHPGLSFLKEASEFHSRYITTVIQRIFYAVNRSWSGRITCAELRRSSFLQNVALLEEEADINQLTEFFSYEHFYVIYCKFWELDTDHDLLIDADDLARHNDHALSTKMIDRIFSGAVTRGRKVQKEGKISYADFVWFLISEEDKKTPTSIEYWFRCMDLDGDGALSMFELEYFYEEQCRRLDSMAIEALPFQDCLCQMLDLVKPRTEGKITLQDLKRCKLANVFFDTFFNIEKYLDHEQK

T3: PR70 (105–575) (human, UniProt Q9Y5P8 105-575)
T3 construct: PR70 (B''β), regulatory B'' subunit of PP2A, human, product of PPP2R3B; source: E. coli BL21(DE3), purified (IMAC, TEV cleavage, gel filtration); not shown: His tag, N-terminal, cleaved
T3 sequence (looked up): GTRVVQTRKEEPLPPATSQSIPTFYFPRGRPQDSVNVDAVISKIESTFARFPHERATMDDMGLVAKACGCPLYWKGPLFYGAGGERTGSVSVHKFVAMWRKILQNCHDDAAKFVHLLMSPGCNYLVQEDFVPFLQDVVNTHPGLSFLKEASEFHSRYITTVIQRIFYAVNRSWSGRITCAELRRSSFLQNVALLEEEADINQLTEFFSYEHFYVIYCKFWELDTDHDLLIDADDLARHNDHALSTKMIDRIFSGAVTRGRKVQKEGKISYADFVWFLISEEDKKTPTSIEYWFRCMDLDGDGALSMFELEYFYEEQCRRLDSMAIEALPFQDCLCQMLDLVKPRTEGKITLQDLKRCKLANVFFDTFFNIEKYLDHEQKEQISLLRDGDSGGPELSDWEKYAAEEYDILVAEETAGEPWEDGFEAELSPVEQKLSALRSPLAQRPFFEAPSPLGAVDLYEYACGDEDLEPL

T4: PR70 (130–504) (human, UniProt Q9Y5P8 130-504)
T4 construct: PR70 (B''β), regulatory B'' subunit of PP2A, human, product of PPP2R3B; residues 130–504; source: E. coli BL21(DE3), purified (IMAC, TEV cleavage, gel filtration); not shown: His tag, N-terminal, cleaved
T4 sequence (looked up): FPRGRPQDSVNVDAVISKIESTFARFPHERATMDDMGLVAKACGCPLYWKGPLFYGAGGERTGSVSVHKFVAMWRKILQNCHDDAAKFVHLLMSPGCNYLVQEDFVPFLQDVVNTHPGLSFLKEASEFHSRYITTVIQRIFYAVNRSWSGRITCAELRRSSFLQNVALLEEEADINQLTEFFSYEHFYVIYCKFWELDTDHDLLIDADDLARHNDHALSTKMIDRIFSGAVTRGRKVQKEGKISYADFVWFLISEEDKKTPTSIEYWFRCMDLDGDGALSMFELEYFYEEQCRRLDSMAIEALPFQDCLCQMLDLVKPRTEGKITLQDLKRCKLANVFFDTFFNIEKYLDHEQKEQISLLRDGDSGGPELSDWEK


Assays:
Details in all cases: both partners purified
[1] = target: T1, PR70 (25–575); test: ITC; B''-constructs at 20–40 µM in the cell titrated with 200–300 µM Aα or Aβ constructs; 15°C; 20 mM Tris pH 7.5, 200 mM NaCl, 2 mM CaCl2; 1:1 binding model
[2] = target: T2, PR70 core fragment (residues 130–483); test: as above
[3] = target: T3, PR70 (105–575); test: as above
[4] = target: T4, PR70 (130–504); test: as above
[5] = target: T5, A α (HEAT1–15) (UniProt P30153 1-589); test: SAXS; complex purified on Superdex 200 in 20 mM Tris pH 7.5, 20 mM NaCl, 2 mM CaCl2, 0.5 mM TCEP, 1% glycerol at 15°C just prior to SAXS; 1.5 mg/ml
T5 construct: PP2A scaffolding subunit A, α isoform, product of PPP2R1A; HEAT repeats 1–15; calculated molecular weight 65.3 kD; also called full length A-subunit; scaffolding A subunit; source: E. coli BL21(DE3), purified (IMAC, TEV cleavage, gel filtration); not shown: His tag, N-terminal, cleaved

Kd [1] [nM]	dH [1] [kcal/mol]	stoichiometry N [1]	Kd [2] [nM]	Kd [3] [nM]	dH [3] [kcal/mol]	stoichiometry N [3]	Kd [4] [nM]	binding result [5]	Binder
223 ± 21	-19.1 ± 0.4	0.93 ± 0.02	> 100000	158 ± 22	-20.3 ± 0.2	0.99 ± 0.01	> 100000		A α (HEAT1–8) (domain or fragment, UniProt P30153 1-321, looked up, PP2A scaffolding subunit A, α isoform, product of PPP2R1A; HEAT repeats 1–8 (C-terminal repeats deleted); also called construct spanning HEAT repeats 1–8; source: E. coli BL21(DE3), purified (IMAC, TEV cleavage, gel filtration); not shown: His tag, N-terminal, cleaved) MAAADGDDSLYPIAVLIDELRNEDVQLRLNSIKKLSTIALALGVERTRSELLPFLTDTIYDEDEVLLALAEQLGTFTTLVGGPEYVHCLLPPLESLATVEETVVRDKAVESLRAISHEHSPSDLEAHFVPLVKRLAGGDWFTSRTSACGLFSVCYPRVSSAVKAELRQYFRNLCSDDTPMVRRAAASKLGEFAKVLELDNVKSEIIPMFSNLASDEQDSVRLLAVEACVNIAQLLPQEDLEALVMPTLRQAAEDKSWRVRYMVADKFTELQKAVGPEITKTDLVPAFQNLMKDCEAEVRAAASHKVKEFCENLSADCRENV
								binds	PR70 (130–575) (domain or fragment, human, UniProt Q9Y5P8 130-575, looked up, PR70 (B''β), regulatory B'' subunit of PP2A, human, product of PPP2R3B; Used only for SAXS of the complex with the A-subunit; source: E. coli BL21(DE3), purified (IMAC, TEV cleavage, gel filtration); not shown: His tag, N-terminal, cleaved) FPRGRPQDSVNVDAVISKIESTFARFPHERATMDDMGLVAKACGCPLYWKGPLFYGAGGERTGSVSVHKFVAMWRKILQNCHDDAAKFVHLLMSPGCNYLVQEDFVPFLQDVVNTHPGLSFLKEASEFHSRYITTVIQRIFYAVNRSWSGRITCAELRRSSFLQNVALLEEEADINQLTEFFSYEHFYVIYCKFWELDTDHDLLIDADDLARHNDHALSTKMIDRIFSGAVTRGRKVQKEGKISYADFVWFLISEEDKKTPTSIEYWFRCMDLDGDGALSMFELEYFYEEQCRRLDSMAIEALPFQDCLCQMLDLVKPRTEGKITLQDLKRCKLANVFFDTFFNIEKYLDHEQKEQISLLRDGDSGGPELSDWEKYAAEEYDILVAEETAGEPWEDGFEAELSPVEQKLSALRSPLAQRPFFEAPSPLGAVDLYEYACGDEDLEPL
